According to patent publication US20190077864A1 (ONCOMED PHARMACEUTICALS, published 2019):

Assays:
[1] = biological target: murine TIGIT (mTIGIT) on B3Z T-cell hybridoma cells (mouse) (UniProt P86176); assay: cell-based or functional assay
[2] = biological target: murine TIGIT (mTIGIT) tagged with FLAG and GFP, on cells (mouse) (UniProt P86176); assay: cell-based or functional assay
human TIGIT = biological target: T1, human TIGIT (human, UniProt Q495A1 22-141, limits assumed); assay: Biacore, preliminary; format not stated
T1 construct: also called hTIGIT
T1 sequence: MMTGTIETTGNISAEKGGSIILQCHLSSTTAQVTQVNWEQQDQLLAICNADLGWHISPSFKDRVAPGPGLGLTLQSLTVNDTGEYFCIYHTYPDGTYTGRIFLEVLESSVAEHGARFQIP

[3] = biological target: T2, mouse TIGIT ECD-CD4TM-GFP on HEK-293T cells (mouse, UniProt P86176 29-148); assay: flow cytometry of rabbit antibody supernatant on HEK-293T cells transiently transfected with mouse TIGIT ECD-CD4TM-GFP; antibody signal against GFP
T2 construct: The legend names the construct as mouse TIGIT ECD; also called mouse TIGIT-CD4TM-GFP; mTIGIT-CD4TM-GFP; not shown: transmembrane domain of CD4 (CD4TM); GFP (green fluorescent protein)
T2 sequence: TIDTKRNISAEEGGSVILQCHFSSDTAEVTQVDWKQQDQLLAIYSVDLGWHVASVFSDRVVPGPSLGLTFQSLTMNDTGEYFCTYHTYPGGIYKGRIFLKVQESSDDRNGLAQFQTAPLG

[4] = biological target: T2, mouse TIGIT ECD-CD4TM-GFP on HEK-293T …; assay: flow cytometry, 1 µg/ml antibody on transiently transfected HEK-293T cells, PE-conjugated anti-Fc secondary, signal against TIGIT-GFP
Experimental: The TIGIT variants were evaluated by FACS with anti-hTIGIT antibodies. […] After 16 hours, transfected cells were suspended in ice cold HBSS containing 2% FBS and incubated on ice with 1 μg/ml anti-hTIGIT antibodies 313R12, 313M32, or 313M34 for 30 minutes. 313M34 is an anti-hTIGIT antibody that was generated based upon the amino acid sequences of the 10A7 antibody described in U.S. Publication 2009/0258013. The 10A7 antibody is an anti-mouse TIGIT antibody that binds both mouse TIGIT and human TIGIT. A second incubation with 50 μl PE-conjugated anti-Fc secondary antibody was performed to detect cells bound by the antibodies. The cells were analyzed on a FACSCanto instrument (BD Biosciences) and the data was processed using FlowJo software.

hPVR-rbFc fusion protein = biological target: T3, hPVR-rbFc fusion protein (human, UniProt P15151 21-343); assay: flow cytometry of hPVR-rbFc on HEK-293T cells with hTIGIT-CD4TM-GFP, detected with anti-rabbit Fc-PE, no antibody added
T3 construct: extracellular domain; Expressed in CHO cells, purified on protein A; also called human PVR-rabbit Fc fusion protein; not shown: rabbit Fc region
T3 sequence (looked up): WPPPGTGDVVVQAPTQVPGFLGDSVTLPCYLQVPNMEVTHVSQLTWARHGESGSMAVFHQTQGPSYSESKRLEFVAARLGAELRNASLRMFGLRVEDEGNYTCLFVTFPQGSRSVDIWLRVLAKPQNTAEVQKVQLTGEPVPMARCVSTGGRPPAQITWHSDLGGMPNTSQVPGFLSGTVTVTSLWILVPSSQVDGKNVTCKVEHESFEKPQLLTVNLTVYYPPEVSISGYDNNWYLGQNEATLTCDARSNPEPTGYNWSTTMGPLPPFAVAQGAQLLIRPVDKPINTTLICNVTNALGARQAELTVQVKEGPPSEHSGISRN
Experimental: FIGS. 19A and 19B. FACS analysis of anti-TIGIT antibody blocking binding of human TIGIT to PVR. […] Transfected cells were incubated with soluble human PVR-Fc fusion protein in the presence of antibodies generated to TIGIT (313R19, 313M26, or 313M32) at concentrations of 10, 2, or 0.4 μg/ml or no antibody and analyzed by flow cytometry. Specific binding is indicated by the presence of a diagonal signal within a FACS plot. […] Specific binding is indicated by the presence of a diagonal signal within a FACS plot.
After 16 hours, transfected cells were suspended in ice cold HBSS containing 2% FBS and heparin and incubated on ice with 0.5 μg/ml hPVR-rbFc fusion protein in the presence of anti-TIGIT antibodies 313R19, 313M26, or 313M32 for 60 minutes. Antibody 313R19 is a humanized version of a rabbit anti-TIGIT antibody. 313R19 binds mouse and human TIGIT. The antibodies were tested at concentrations of 10, 2, and 0.4 ug/ml. Cells were incubated without antibody or without hPVR-rbFc as controls. A second incubation with 100 μl PE-conjugated anti-rabbit Fc secondary antibody was performed to detect cells bound by the hPVR-rbFc fusion protein. The cells were analyzed on a FACSCanto instrument (BD Biosciences) and the data was processed using FlowJo software.

murine PVR (mPVR) on cells (ligand)
ratio of IL-2 secretion in response to mPVR-expressing tumor cells to that in response to mPVR-negative tumor cells (ELISA) [1]: < 1
ratio of NK-92 cytotoxicity against 721.221-mPVR cells to that against parental 721.221 cells (calcein release) [2]: < 1

B1: anti-TIGIT antibody 313R19 (antibody, human IgG1, kappa, V domains shown)
VH: QVQLQESGPGLVKPSETLSLTCTVSGFSLSSSYMSWIRQPPGKGLEWIGIIGSNGNTYYANWAKGRVTISKSSNQVSLKLSSVTAADTAVYYCARGGYRTSGMDPWGQGTLVTVSS
VL: DIQMTQSPSSLSASVGDRVTITCQASQNIYSDLAWYQQKPGKAPKLLIYRASTLASGVPSRFSGSGSGTDFTLTISSLQPEDFATYYCQQEHLVAWIYNVFGQGTKVEIKR
notes: Humanized rabbit antibody, human IgG1
Kd (human TIGIT): 2 nM

B2: anti-TIGIT antibody 313Rb1 (antibody, V domains shown)
VH: QVQLESEGGLFKPTDTLTLTCTVSGSSLSSSYMSWVRQAPGKGLEWIGIIGSNGNTYYANWAKGRFTISKTSTTVELKITSPTTEDTATYFCARGGYRTSGMDPWGPGTLVTVSS
VL: DIVMTQTPASVEVAVGGTVTIKCQASQSISSYLNWYQQKPGQPPKLLIYDALKLASGVPSRFSGSGSGTEYTLTISGVESADAATYYCQQEHSVGNVDNVFGGGTEVVVKR
notes: Rabbit antibody raised against the extracellular domain of mouse TIGIT
binding result [3]: binds

B3: anti-TIGIT antibody 313R12 (antibody, mouse IgG2a, kappa, V domains shown)
VH: B2 VH
VL: B2 VL
notes: Chimeric antibody: variable regions of 313Rb1 in a mouse IgG2a format
binding result [4]: binds

B4: hTIGIT-CD4TM-GFP on HEK-293T cells (receptor)
chain: T1 sequence
notes: Cell surface fusion protein, transiently expressed; also called human TIGIT ECD-CD4TM-GFP; FLAG-hTIGIT-CD4TM-GFP; not shown: transmembrane domain of CD4 (CD4TM); C-terminal GFP protein tag
binding result (hPVR-rbFc fusion protein): binds
